# Laboratory results from article PMC3930596, “Insights into the Initiation of JC Virus DNA Replication Derived from the Crystal Structure of the T-Antigen Origin Binding Domain”.
# T1: JCV T-antigen origin-binding domain (OBD) (JC virus (JCV), UniProt P03072 132-261)
# T1 sequence: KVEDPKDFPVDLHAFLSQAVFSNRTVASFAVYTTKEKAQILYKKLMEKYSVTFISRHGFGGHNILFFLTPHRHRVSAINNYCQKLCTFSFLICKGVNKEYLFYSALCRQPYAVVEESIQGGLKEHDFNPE
# How the values were obtained:
# [1] = target: JCV T-antigen origin-binding domain (OBD; residues 132-261) (JC virus); experiment: crystal structure; crystal form 2, space group I4_(1), 2.6 Å; 0.1 M Tris pH 8.5, 0.2 M LiSO4, 30% PEG 4000, 4 C; contacts with symmetry mates
# [2] = target: JCV T-antigen origin-binding domain (OBD; residues 132-261) (JC virus); experiment: crystal structure; crystal form 1, space group C2, 1.64 Å, two molecules in the asymmetric unit; 0.1 M sodium citrate pH 5.6, 30% PEG 3350, 18 C; interfaces analysed with PISA
# [3] = target: JCV T-antigen origin-binding domain (residues 132-261) with tartrate-modified Lys168 (crystal form 3) (JC virus); experiment: crystal structure; crystal form 3, space group P4_(1), 1.32 Å, one molecule in the asymmetric unit; 0.19 M sodium tartrate, 19% PEG 3350, 4 C; contacts with symmetry mates
# [4] = target: T1, JCV T-antigen origin-binding domain …; experiment: ITC; ITC (VP-ITC): 10 mM sodium phosphate pH 7.0, 50 mM NaCl; temperature not stated; OBD in syringe (~80 uM for Site II, 40 uM for Site I), DNA 1.5 uM / 1.0 uM; conditions: protein: recombinant; tags: N-terminal GST removed by thrombin; chain copies: 4; blunt
# [5] = target: T1, JCV T-antigen origin-binding domain …; experiment: ITC; average of four titrations; titration shown in Fig. 4A ~278 nM; N = 4 OBDs per duplex; ITC (VP-ITC): 10 mM sodium phosphate pH 7.0, 50 mM NaCl; temperature not stated; OBD in syringe (~80 uM for Site II, 40 uM for Site I), DNA 1.5 uM / 1.0 uM; conditions: protein: recombinant; tags: N-terminal GST removed by thrombin; chain copies: 4; blunt
molecule,measurement,setting,value
JCV T-antigen origin-binding domain (OBD; residues 132-261) (domain or fragment),stoichiometry N,[1],4
same,stoichiometry N,[2],4
JCV T-antigen origin-binding domain (residues 132-261) with tartrate-modified Lys168 (crystal form 3) (domain or fragment),stoichiometry N,[3],4
JCV Site I 28 bp (dsDNA) DNA 1: GCGTGGAGGCTTTTTAGGAGGCCAGGGA DNA 2: TCCCTGGCCTCCTAAAAAGCCTCCACGC,Kd,[4],18.3 nM
JCV Site II 33 bp (dsDNA) DNA 1: TACAGGAGGCCGAGGCCGCCTCCGCCTCCAAGC DNA 2: GCTTGGAGGCGGAGGCGGCCTCGGCCTCCTGTA,Kd,[5],299 nM
